Literature values in article PMC6962051.

Target: linear di-ubiquitin (Homo sapiens) (UniProt P0CG47)
Assay: isothermal titration calorimetry

NEMO CoZi, sequence (Q9Y6K9 258-350): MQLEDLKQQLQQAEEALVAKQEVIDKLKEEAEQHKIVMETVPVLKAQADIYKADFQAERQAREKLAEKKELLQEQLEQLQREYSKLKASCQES

NEMO CoZi (from UniProt Q9Y6K9)
Kd: 2400 nM
